Experimental data published in US20240150489A1 (ICHNOS SCIENCES, published 2024).

T1: human FcγR2b-ECD-His (human, UniProt P31994 46-217)
T1 construct: His-tagged fusion made in house (UniProt P31994); also called FcγRIIb; Fc-receptor IIb
T1 sequence: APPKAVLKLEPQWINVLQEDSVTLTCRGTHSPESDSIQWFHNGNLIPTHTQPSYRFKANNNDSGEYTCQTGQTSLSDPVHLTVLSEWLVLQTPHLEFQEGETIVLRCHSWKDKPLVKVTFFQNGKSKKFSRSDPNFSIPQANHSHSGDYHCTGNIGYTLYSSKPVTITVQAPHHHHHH

T2: human FcγR2a-ECD-His (human, UniProt P12318 34-208)
T2 construct: His-tagged fusion made in house (UniProt P12318); The SPR method names only 'Fc-receptors IIa, IIb, and IIIa'; also called FcγRIIa; Fc-receptor IIa
T2 chain: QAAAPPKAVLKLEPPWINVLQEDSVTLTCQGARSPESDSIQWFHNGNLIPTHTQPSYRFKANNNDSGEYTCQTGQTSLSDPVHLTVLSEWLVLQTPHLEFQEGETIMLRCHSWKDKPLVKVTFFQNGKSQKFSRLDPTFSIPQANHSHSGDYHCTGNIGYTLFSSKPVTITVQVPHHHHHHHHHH


How the values were obtained:
[1] = target: T3, CD38 on cells (Daudi, Raji, KMS-12-PE, NCI-H929, KMS-12-BM) (human, UniProt P28907); test: flow cytometry on KMS-12-PE cells (carry CD38 and CD47), anti-human IgG-Fc PE, GeoMFI; apparent whole-cell value, the anti-CD47 arm also binds
T3 construct: full-length, cell surface; These cells also carry CD47

[2] = target: T3, CD38 on cells (Daudi, Raji, KMS-12-PE, …); test: flow cytometry on KMS-12-BM cells (carry CD38 and CD47), anti-human IgG-Fc PE, GeoMFI; apparent whole-cell value, the anti-CD47 arm also binds
[3] = target: T3, CD38 on cells (Daudi, Raji, KMS-12-PE, …); test: flow cytometry on Daudi cells (carry CD38 and CD47), anti-human IgG-Fc PE, GeoMFI; apparent whole-cell value, the anti-CD47 arm also binds
[4] = target: T3, CD38 on cells (Daudi, Raji, KMS-12-PE, …); test: flow cytometry on Raji cells (carry CD38 and CD47), anti-human IgG-Fc PE, GeoMFI; apparent whole-cell value, the anti-CD47 arm also binds
[5] = target: T4, CD47 on cells (Daudi cells; human red blood cells) (human, UniProt Q08722 19-323); test: blocking of SIRPα-mIgG1 Fc binding to CD47 on Daudi cells, image-based readout with anti-mouse IgG Fc Alexa Fluor 647, % inhibition; the sheet calls the half-maximal value EC50
T4 construct: whole, on cells; These cells also carry CD38

[6] = target: T5, Avi-Tagged FcRn (Acrobiosystems, FCM-H82W2) (human, UniProt P55899 24-297, biotinylated (captured with Biotin CAPture kit)); test: SPR steady state, FcRn captured on CAP chip, antibody analyte; reference trastuzumab control IgG1
T5 construct: also called human neonatal Fc receptor

human FcγR2b-ECD-His = target: T1, human FcγR2b-ECD-His; test: SPR steady state, antibody on protein G chip, receptor analyte; reference trastuzumab control IgG1
human FcγR2a-ECD-His = target: T2, human FcγR2a-ECD-His; test: as above
human FcγR3a-ECD-His = target: T6, human FcγR3a-ECD-His (human, UniProt P08637 17-193); test: as above
T6 construct: His-tagged fusion made in house (UniProt P08637); also called FcγRIIIa; Fc-receptor IIIa

[7] = target: T3, CD38 on cells (Daudi, Raji, KMS-12-PE, …); test: flow cytometry on NCI-H929 cells (carry CD38 and CD47), anti-human IgG-Fc PE, GeoMFI; apparent whole-cell value, the anti-CD47 arm also binds
[8] = target: Avi-Tagged FcγRIa (Acrobiosystems, FCA-H82E8) (UniProt P12314 16-288, biotinylated (captured with Biotin CAPture kit)); test: SPR, FcγRIa captured on CAP chip, antibody analyte; reference trastuzumab control IgG1

| Binder | EC50 (read off the curve) [1] | EC50 (read off the curve) [2] | EC50 (read off the curve) [3] | EC50 (read off the curve) [4] | IC50 (read off the curve) [5] | KD ratio [BEAT/Control IgG1] [6] | fold gain in affinity vs control (human FcγR2b-ECD-His) | fold gain in affinity vs control (human FcγR2a-ECD-His) | fold gain in affinity vs control (human FcγR3a-ECD-His) | EC50 (read off the curve) [7] | fold gain in affinity vs control [8] |
| --- | --- | --- | --- | --- | --- | --- | --- | --- | --- | --- | --- |
| BEAT CD38/CD47-48 (bispecific antibody, human IgG1, kappa, 2+1 biparatopic format; the number of light chains follows from the three Fab domains; also called BEAT CD38/47-48; BEAT 38/47-48) heavy 1: EVQLVESGGGLIQPGGSLRLSCAASGFTLSRNTMHWVRQAPGKGLEWVSVIYQSGVTRYADSVKSRFTISRDNSKNTLYLQMNSLRAEDTAVYYCARGRYGVAGGPGYAFDVWGQGTLVTVSSASTKGPSVFPLAPSSKSTSGGTAALGCLVKDYFPEPVTVSWNSGALTSGVHTFPAVLQSSGLYSLSSVVTVPSSSLGTQTYICNVNHKPSNTKVDKKVEPKSCDKTHTCPPCPAPELLGGPDVFLFPPKPKDTLMISRTPEVTCVVVDVSHEDPEVKFNWYVDGVEVHNAKTKPREEQYNSTYRVVSVLTVLHQDWLNGKEYKCKVNNKALPAPEEKTISKAKGQPREPAVYTLPPSREEMTKNQVKLVCLVTGFYPSDIAVEWESSGQPENNYYTTPPMLDSDGSFSLVSWLNVDKSRWQQGNIFSCSVMHEALHNRFTQKSLSLSPG heavy 2: not shown light: not shown | ~6 nM | ~30 nM | ~8 nM | ~10 nM | ~0.05 nM | 0.2 ratio | 16 fold | 7 fold | 10 fold | ~20 nM | 864 fold |
| BEAT CD38/CD47-32 (bispecific antibody, human IgG1, kappa, 2+1 monoparatopic format; E269D + S298A + S324N + E333A in both heavy chains) heavy 1: EVQLVESGGGLIQPGGSLRLSCAASGFTLSRNTMHWVRQAPGKGLEWVSVIYQSGVTRYADSVKSRFTISRDNSKNTLYLQMNSLRAEDTAVYYCARGRYGVAGGPGYAFDVWGQGTLVTVSSASTKGPSVFPLAPSSKSTSGGTAALGCLVKDYFPEPVTVSWNSGALTSGVHTFPAVLQSSGLYSLSSVVTVPSSSLGTQTYICNVNHKPSNTKVDKKVEPKSCDKTHTCPPCPAPELLGGPSVFLFPPKPKDTLMISRTPEVTCVVVDVSHDDPEVKFNWYVDGVEVHNAKTKPREEQYNATYRVVSVLTVLHQDWLNGKEYKCKVNNKALPAPIAKTISKAKGQPREPAVYTLPPSREEMTKNQVKLVCLVTGFYPSDIAVEWESSGQPENNYYTTPPMLDSDGSFSLVSWLNVDKSRWQQGNIFSCSVMHEALHNRFTQKSLSLSPG heavy 2: QVQLVQSGAEVKKPGSSVKVSCKASGLPDATYAIGWVRQAPGQGLEWMGRIIPRLDAEHYAQKFQGRVTITADESTSTAYMELSSLRSEDTAVYYCARGLGYYLYSSYYFDIWGQGTLVTVSSASTKGPSVFPLAPSSKSTSGGTAALGCLVKDYFPEPVTVSWNSGALTSGVHTFPAVLQSSGLYSLSSVVTVPSSSLGTQTYICNVNHKPSNTKVDKKVEPKSCGGGGSGGGGSGGGGSQVQLVQSGAEVKKPGSSVKVSCKASGLPDATYAIGWVRQAPGQGLEWMGRIIPRLDAEHYAQKFQGRVTITADESTSTAYMELSSLRSEDTAVYYCARGLGYYLYSSYYFDIWGQGTLVTVSSASTKGPSVFPLAPSSKSTSGGTAALGCLVKDYFPEPVTVSWNSGALTSGVHTFPAVLQSSGLYSLSSVVTVPSSSLGTQTYICNVNHKPSNTKVDKKVEPKSCDKTHTCPPCPAPELLGGPSVFLFPPKPKDTLMISRTPEVTCVVVDVSHDDPEVKFNWYVDGVEVHNAKTKPREEQYNATYRVVSVLTVLHQDWLNGKEYKCKVNNKALPAPIAKTISKAKGQPREPEVATFPPSRDELTKNQVTLVCLVTGFYPSDIAVEWESNGQPENNYKTDPPLLESQGSFALSSRLRVDKSRWQQGNVFSCSVMHEALHNHYTQKSLSLSPG light: not shown |  |  |  |  |  |  | 1 fold | 0.5 fold | 3 fold |  | 12 fold |

Continued, values first:

| EC50 (read off the curve) [1] | EC50 (read off the curve) [2] | EC50 (read off the curve) [3] | EC50 (read off the curve) [4] | IC50 (read off the curve) [5] | KD ratio [BEAT/Control IgG1] [6] | fold gain in affinity vs control (human FcγR2b-ECD-His) | fold gain in affinity vs control (human FcγR2a-ECD-His) | fold gain in affinity vs control (human FcγR3a-ECD-His) | EC50 (read off the curve) [7] | fold gain in affinity vs control [8] | Binder |
| --- | --- | --- | --- | --- | --- | --- | --- | --- | --- | --- | --- |
|  |  |  |  |  | 0.3 ratio | 1 fold | 0.4 fold | 4 fold |  | 4510 fold | BEAT CD38/CD47-40 (bispecific antibody, human IgG1, kappa, 2+1 biparatopic format; E269D + S298A + S324N + K334A in both heavy chains) heavy 1: EVQLVESGGGLIQPGGSLRLSCAASGFTLSRNTMHWVRQAPGKGLEWVSVIYQSGVTRYADSVKSRFTISRDNSKNTLYLQMNSLRAEDTAVYYCARGRYGVAGGPGYAFDVWGQGTLVTVSSASTKGPSVFPLAPSSKSTSGGTAALGCLVKDYFPEPVTVSWNSGALTSGVHTFPAVLQSSGLYSLSSVVTVPSSSLGTQTYICNVNHKPSNTKVDKKVEPKSCDKTHTCPPCPAPELLGGPSVFLFPPKPKDTLMISRTPEVTCVVVDVSHDDPEVKFNWYVDGVEVHNAKTKPREEQYNATYRVVSVLTVLHQDWLNGKEYKCKVNNKALPAPIEATISKAKGQPREPAVYTLPPSREEMTKNQVKLVCLVTGFYPSDIAVEWESSGQPENNYYTTPPMLDSDGSFSLVSWLNVDKSRWQQGNIFSCSVMHEALHNRFTQKSLSLSPG heavy 2: not shown light: not shown |
|  |  |  |  |  |  | 1 fold | 0.4 fold | 4 fold |  | 874 fold | BEAT CD38/CD47-34 (bispecific antibody, human IgG1, kappa, 2+1 monoparatopic format; E269D + S298A + S324N + K334A in both heavy chains) heavy 1: EVQLVESGGGLIQPGGSLRLSCAASGFTLSRNTMHWVRQAPGKGLEWVSVIYQSGVTRYADSVKSRFTISRDNSKNTLYLQMNSLRAEDTAVYYCARGRYGVAGGPGYAFDVWGQGTLVTVSSASTKGPSVFPLAPSSKSTSGGTAALGCLVKDYFPEPVTVSWNSGALTSGVHTFPAVLQSSGLYSLSSVVTVPSSSLGTQTYICNVNHKPSNTKVDKKVEPKSCDKTHTCPPCPAPELLGGPSVFLFPPKPKDTLMISRTPEVTCVVVDVSHDDPEVKFNWYVDGVEVHNAKTKPREEQYNATYRVVSVLTVLHQDWLNGKEYKCKVNNKALPAPIEATISKAKGQPREPAVYTLPPSREEMTKNQVKLVCLVTGFYPSDIAVEWESSGQPENNYYTTPPMLDSDGSFSLVSWLNVDKSRWQQGNIFSCSVMHEALHNRFTQKSLSLSPG heavy 2: QVQLVQSGAEVKKPGSSVKVSCKASGLPDATYAIGWVRQAPGQGLEWMGRIIPRLDAEHYAQKFQGRVTITADESTSTAYMELSSLRSEDTAVYYCARGLGYYLYSSYYFDIWGQGTLVTVSSASTKGPSVFPLAPSSKSTSGGTAALGCLVKDYFPEPVTVSWNSGALTSGVHTFPAVLQSSGLYSLSSVVTVPSSSLGTQTYICNVNHKPSNTKVDKKVEPKSCGGGGSGGGGSGGGGSQVQLVQSGAEVKKPGSSVKVSCKASGLPDATYAIGWVRQAPGQGLEWMGRIIPRLDAEHYAQKFQGRVTITADESTSTAYMELSSLRSEDTAVYYCARGLGYYLYSSYYFDIWGQGTLVTVSSASTKGPSVFPLAPSSKSTSGGTAALGCLVKDYFPEPVTVSWNSGALTSGVHTFPAVLQSSGLYSLSSVVTVPSSSLGTQTYICNVNHKPSNTKVDKKVEPKSCDKTHTCPPCPAPELLGGPSVFLFPPKPKDTLMISRTPEVTCVVVDVSHDDPEVKFNWYVDGVEVHNAKTKPREEQYNATYRVVSVLTVLHQDWLNGKEYKCKVNNKALPAPIEATISKAKGQPREPEVATFPPSRDELTKNQVTLVCLVTGFYPSDIAVEWESNGQPENNYKTDPPLLESQGSFALSSRLRVDKSRWQQGNVFSCSVMHEALHNHYTQKSLSLSPG light: not shown |
